These results are taken from patent US20070066551.

The subject of data set [1] is IgE (Homo sapiens), P01854-1. The data set is described as follows: filter. The settings on record: DPBS with Ca/Mg, BSA.
In data set [2] the target is IL-23 (full length) (Homo sapiens) (UniProt Q9NPF7+P29460). As to the kind of experiment: filter. The settings on record: dRmY, DPBS with Ca/Mg, BSA, RT.

Usually Kd stands for the constant that tells how readily two partners part at equilibrium.

Chain of IgE (Homo sapiens), P01854-1 (P01854 other isoform, or with tags, fused parts or gaps): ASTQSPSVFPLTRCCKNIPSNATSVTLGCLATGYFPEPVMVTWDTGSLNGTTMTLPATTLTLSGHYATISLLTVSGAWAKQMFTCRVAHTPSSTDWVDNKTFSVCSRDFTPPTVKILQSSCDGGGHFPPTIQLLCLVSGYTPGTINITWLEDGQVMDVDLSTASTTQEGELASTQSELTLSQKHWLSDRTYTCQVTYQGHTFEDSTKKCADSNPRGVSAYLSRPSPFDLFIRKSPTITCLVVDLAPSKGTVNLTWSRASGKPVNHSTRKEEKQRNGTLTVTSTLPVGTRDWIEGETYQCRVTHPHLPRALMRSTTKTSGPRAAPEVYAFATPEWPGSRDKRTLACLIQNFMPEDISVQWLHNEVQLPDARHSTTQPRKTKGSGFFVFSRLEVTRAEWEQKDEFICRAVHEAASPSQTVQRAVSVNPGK
Chain of IL-23 (full length) (Homo sapiens) (Q9NPF7 20-189, chain 1 of 2): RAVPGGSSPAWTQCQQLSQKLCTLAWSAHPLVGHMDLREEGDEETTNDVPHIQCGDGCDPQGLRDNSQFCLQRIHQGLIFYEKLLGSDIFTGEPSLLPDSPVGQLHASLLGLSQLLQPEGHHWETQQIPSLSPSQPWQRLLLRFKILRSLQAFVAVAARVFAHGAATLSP
Chain of IL-23 (full length) (Homo sapiens) (P29460 23-328, chain 2 of 2): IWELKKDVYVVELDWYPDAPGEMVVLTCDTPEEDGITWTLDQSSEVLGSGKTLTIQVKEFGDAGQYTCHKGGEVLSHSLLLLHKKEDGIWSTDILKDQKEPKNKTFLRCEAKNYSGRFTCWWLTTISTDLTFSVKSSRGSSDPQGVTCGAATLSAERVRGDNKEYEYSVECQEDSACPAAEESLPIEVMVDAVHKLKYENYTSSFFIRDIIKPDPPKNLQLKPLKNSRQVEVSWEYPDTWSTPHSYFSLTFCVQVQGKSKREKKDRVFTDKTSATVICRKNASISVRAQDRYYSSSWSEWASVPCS

AGCCUGGGGACCCAUGGGGGGCU [ARC1335] gave a Kd in data set [1] (ARC445 with 2'-OMe purines at 1, 2, 7, 10, 14, 17, other purines 2'-deoxy, 2'-OMe pyrimidines, 3'-idT (last t of SEQ), RT, other runs 15 nM (Table 9), 2.8 nM (Table 11)) of 0.3 nM.
On to AGCCUGGGGACCCAUGGGGGGCU [ARC767], for which the Kd in data set [1] (dRmY, PS between 12 and 13, 16 and 17, 20 and 21, RT, parent 12.6 nM) came out at 2.7 nM.
Take AGCCUGGGGACCCAUGGGGGGCU [ARC920]: the Kd in data set [1] (dRmY, 2'-deoxy-5mC at 3 and 22, dC at 12, ssDNA, tRNA, parent 27 nM) came out at 12.8 nM.
Consider AGCCUGGGGACCCAUGGGGGGCU [ARC925], for which, in data set [1] (dRmY, 2'-deoxy-5mC at 3, dC at 12 and 22, ssDNA, tRNA, parent 13 nM), the Kd amounted to 8.1 nM.
AGCCUGGGGACCCAUGGGGGGCU [ARC918]: the Kd in data set [1] (dRmY, 2'-deoxy-5mC at 22, dC at 12, ssDNA, tRNA, parent 27 nM) was determined as 14.6 nM.
In the case of “ACAGGCAAGUAAUUGGGGAGUGCGGGCGGGGUGN [ARC1702]”, in data set [2] (2'-OMe inosine for last mU, 3'-idT (last t of SEQ), parent 15 nM), the Kd turned out to be 10 nM.
Turning to “ACAGGCAAGUAAUUGGGGAGUGCGGGCGGGGUGU [ARC1648]”, the Kd in data set [2] (dI at 1st dA (position 1) [1], parent 13 nM) amounted to 12 nM.
Turning to AGCCUGGRGACCCRUGGGGGGCU [ARC2360], the Kd in data set [1] (as ARC1335 with 2'-deoxy-2-aminopurine at 8 and 2'-OMe-2-aminopurine at 14, 3'-idT, RT, parent 2.8 nM) amounted to 2.7 nM.
AGCCUGGGGACCCAUGGGGGGCU [ARC1562] had a Kd in data set [1] (as ARC1335 with dI at 16, 3'-idT [16], RT) of 0.6 nM.
Regarding AGCCUGGGGACCCAUGGGGGGCU [ARC915], the dissociation constant Kd in data set [1] (dRmY, 2'-deoxy-5mC at 11, dC at 22, ssDNA, tRNA, parent 27 nM) was determined as 16.9 nM.
Regarding AGCCUGGGGACCCAUGGGGGGCU [ARC1548], the Kd in data set [1] (as ARC1335 with dI at 2, 3'-idT [dI at 2 (parent base G), other modifications as ARC1335, 3'-idT], RT) amounted to 3.3 nM.
Take AGCCUGGGGACCCAUGGGGGGCU [ARC914]: in data set [1] (dRmY, 2'-deoxy-5mC at 3, dC at 22, ssDNA, tRNA, parent 27 nM), the equilibrium dissociation constant (Kd) is 11.9 nM.
In the case of AGCCUGGGGACCCRUGGGGGGCU [ARC2047], the equilibrium dissociation constant (Kd) in data set [1] (as ARC1335 with 2'-OMe-2-aminopurine at 14, 3'-idT, RT, parent 2.8 nM) was 4.8 nM.
On to AGCCUGGGGACCCAUGGGGGGCU [ARC768], for which the equilibrium dissociation constant (Kd) in data set [1] (dRmY, PS between 13 and 14, 16 and 17, 20 and 21, RT, parent 12.6 nM) was 3.5 nM.
As to AGCCUGGGGACCCAUGGGGGGCU [ARC584], the Kd in data set [1] (dRmY, PS between 16 and 17, RT, parent 12.6 nM) amounted to 6.9 nM.
Turning to AGCCUGGGGACCCAUGGGGGGCU [ARC926], the Kd in data set [1] (dRmY, 2'-deoxy-5mC at 11, dC at 12 and 22, ssDNA, tRNA, parent 13 nM) was found to be 5.5 nM.
As for AGCCUGGGGACCCAUGGGGGGCU [ARC1566], the Kd in data set [1] (as ARC1335 with dI at 20, 3'-idT [20], RT, other run 8 nM (Table 9, parent ARC1335 15 nM)) is 0.1 nM.
For the sequence AGCCUGGRGACCCAUGGGGGGCU [ARC2044], in data set [1] (as ARC1335 with 2'-deoxy-2-aminopurine at 8, 3'-idT, RT, parent 2.8 nM), the Kd worked out at 3.9 nM.
In data set [1] (2'-deoxy purines, 2'-OMe pyrimidines (dRmY), RT, other runs 12.6 nM (Table 10), with ssDNA and tRNA 14.6 (Table 8), 20 (Table 12), 8.5, 27 and 13 (Table 13)), AGCCUGGGGACCCAUGGGGGGCU [ARC445] yielded a Kd of 3 nM.
Consider AGCCUGGGGACCCAUGGGGGGCU [ARC599], for which the Kd in data set [1] (dRmY, 2'-deoxy-5mC at 11, ssDNA, tRNA, parent 20 nM, other run 10.4 nM (Table 13, parent 8.5 nM)) was 20.5 nM.
Consider AGCCUGGGGACCCAUGGGGGGCU [ARC916], for which the Kd in data set [1] (dRmY, 2'-deoxy-5mC at 3, dC at 12, ssDNA, tRNA, parent 27 nM) worked out at 13.7 nM.
Take “ACAGGCAAGUAAUUGGGGAGUGCGGGCGGGGUGU [ARC1650]”: the Kd in data set [2] (dI at 3rd dA (position 7) [7], parent 13 nM) stood at 34 nM.
In the case of AGCCUGGGGACCCAUGGGGGGCU [ARC921], the Kd in data set [1] (dRmY, 2'-deoxy-5mC at 11 and 22, dC at 12, ssDNA, tRNA, parent 13 nM) is 8.5 nM.
AGCCUGGGGACCCAUGGGGGGCU [ARC1563] returned a Kd in data set [1] (as ARC1335 with dI at 17, 3'-idT [17], RT) of 2.2 nM.
As to AGCCUGGGGACCCAUGGGGGGCU [ARC756], in data set [1] (dRmY, 2'-deoxy-5mC at 3, 11 and 22, ssDNA, tRNA, parent 20 nM), the equilibrium dissociation constant (Kd) worked out at 14 nM.
Turning to RGCCUGGRGACCCRUGGGGGGCU [ARC2361], in data set [1] (as ARC1335 with 2'-OMe-2-aminopurine at 1 and 14 and 2'-deoxy-2-aminopurine at 8, 3'-idT, RT, parent 2.8 nM), the Kd worked out at 0.8 nM.
As for AGCCUGGGGACCCAUGGGGGGCU [ARC751], the Kd in data set [1] (dRmY, 2'-deoxy-5mC at 3 and 22, ssDNA, tRNA, parent 20 nM) was determined as 15 nM.
As for AGCCUGGGGACCCNUGGGGNGCU [ARC1647], the Kd in data set [1] (as ARC1335 with dI at 14 and 20, 3'-idT, RT, parent ARC1335 15 nM) turned out to be 1 nM.
As for AGCCUGGGGACCCAUGGGGGGCU [ARC1565], the equilibrium dissociation constant (Kd) in data set [1] (as ARC1335 with dI at 19, 3'-idT [19], RT) is 1.4 nM.
AGCCUGGGGACCCAUGGGGGGCU [ARC702]: the Kd in data set [1] (dRmY, PS between 16 and 17, 20 and 21, RT, parent 12.6 nM) came to 2.6 nM.
For the sequence AGCCUGGGGACCCAUGGGGGGCU [ARC597], in data set [1] (dRmY, 2'-deoxy-5mC at 3, ssDNA, tRNA, parent 20 nM, other run 16 nM (Table 13, parent 8.5 nM)), the Kd was 21.5 nM.
For the sequence AGCCUGGGGACCCAUGGGGGGCU [ARC588], the Kd in data set [1] (dRmY, PS between 20 and 21, RT, parent 12.6 nM) was determined as 5.3 nM.
For the sequence AGCCUGGGGACCCAUGGGGGGCU [ARC608], the Kd in data set [1] (dRmY, dC in place of sixth mC (position 22, per description; printed sequence shows mC), ssDNA, tRNA, RT, parent 14.6 nM) stood at 7.9 nM.
Consider “ACAGGCAAGUAANUGGGGAGUGCGGGCGGGGUGU [ARC1683]”, for which the Kd in data set [2] (2'-OMe inosine for 2nd mU, 3'-idT (last t of SEQ), parent 9.8 nM) turned out to be 4.8 nM.
“ACAGGCAAGUAAUUGGGGAGUGCGGGCGGGGUGU [ARC1653]”: in data set [2] (dI at 6th dA (position 12) [12], parent 13 nM), the Kd is 25 nM.
Take AGCCUGGGGACCCAUGGGGGGCU [ARC753]: the Kd in data set [1] (dRmY, 2'-deoxy-5mC at 11 and 22, ssDNA, tRNA, parent 20 nM) was 15 nM.
As to RGCCUGGGGACCCAUGGGGGGCU [ARC2040], in data set [1] (as ARC1335 with 2'-OMe-2-aminopurine at 1, 3'-idT, RT, parent 2.8 nM), the dissociation constant (Kd) stood at 18.7 nM.
The sequence AGCCUGGGGACCCAUGGGGGGCU [ARC1564] came in with a dissociation constant (Kd) in data set [1] (as ARC1335 with dI at 18, 3'-idT [18], RT) of 0.5 nM.
Consider AGCCUGGGGACCCAUGGGGGGCU [ARC602], for which the Kd in data set [1] (dRmY, 2'-deoxy-5mC at 22, ssDNA, tRNA, parent 20 nM, other run 9 nM (Table 13, parent 8.5 nM)) was determined as 26 nM.
On to AGCCUGGGGACCCNUGGGGGGCU [ARC1560], for which the dissociation constant (Kd) in data set [1] (as ARC1335 with dI at 14, 3'-idT, RT, parent ARC1335 15 nM) was determined as 3 nM.
